# Source: the supplement of paper PMC10567573
# B1: ZNF263 (parent)
# chain: RTHTGEKPYKCTLCGENFSHRSNL
# B2: TBX5 (parent)
# chain: YQNHKITQLKIENNPFAKGFRGSD
# Variants of: B1
# Assay: protein stability index of a GFP-peptide fusion (GPS, HEK-293T) (PSI 1-6); higher = more stable
# Settings: c terminus: a fixed tail appended
# 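Further: lentivirally expressed fusions sorted by FACS into six bins by GFP to DsRed ratio, PSI derived from sequencing read proportions per bin multiplied by bin number.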
row,Variant,protein stability index
1,RTHTGEKPYKCTLCGENFSVRSNL,1.89
2,RTHTGEKPYKCTLCGENFSWRSNL,2.28
3,RTHTGEKPYKCTLCGENFSYRSNL,2.13
4,RTHTGEKPYKCTLCGENFSHASNL,2.59
5,RTHTGEKPYKCTLCGENFSHCSNL,2.46
6,RTHTGEKPYKCTLCGENFSHDSNL,3.15
7,RTHTGEKPYKCTLCGENFSHESNL,2.69
8,RTHTGEKPYKCTLCGENFSHFSNL,2.01
9,RTHTGEKPYKCTLCGENFSHGSNL,2.3
10,RTHTGEKPYKCTLCGENFSHHSNL,2.21
11,RTHTGEKPYKCTLCGENFSHISNL,1.92
12,RTHTGEKPYKCTLCGENFSHKSNL,2.13
13,RTHTGEKPYKCTLCGENFSHLSNL,1.64
14,RTHTGEKPYKCTLCGENFSHMSNL,2.22
15,RTHTGEKPYKCTLCGENFSHNSNL,2.19
16,RTHTGEKPYKCTLCGENFSHPSNL,2.08
17,RTHTGEKPYKCTLCGENFSHQSNL,1.94
18,RTHTGEKPYKCTLCGENFSHSSNL,1.96
19,RTHTGEKPYKCTLCGENFSHTSNL,2.11
20,RTHTGEKPYKCTLCGENFSHVSNL,1.98
21,RTHTGEKPYKCTLCGENFSHWSNL,1.68
22,RTHTGEKPYKCTLCGENFSHYSNL,1.96
23,RTHTGEKPYKCTLCGENFSHRANL,1.83
24,RTHTGEKPYKCTLCGENFSHRCNL,3.19
25,RTHTGEKPYKCTLCGENFSHRDNL,2.11
26,RTHTGEKPYKCTLCGENFSHRENL,2.23
27,RTHTGEKPYKCTLCGENFSHRFNL,2

row,Variant,protein stability index
1,RTHTGEKPYKCTLCGENFSHRGNL,2.14
2,RTHTGEKPYKCTLCGENFSHRHNL,2.4
3,RTHTGEKPYKCTLCGENFSHRINL,1.9
4,RTHTGEKPYKCTLCGENFSHRKNL,2.46
5,RTHTGEKPYKCTLCGENFSHRLNL,1.94
6,RTHTGEKPYKCTLCGENFSHRMNL,2
7,RTHTGEKPYKCTLCGENFSHRNNL,2.33
8,RTHTGEKPYKCTLCGENFSHRPNL,1.79
9,RTHTGEKPYKCTLCGENFSHRQNL,2.01
10,RTHTGEKPYKCTLCGENFSHRRNL,2.4
11,RTHTGEKPYKCTLCGENFSHRTNL,1.92
12,RTHTGEKPYKCTLCGENFSHRVNL,1.91
13,RTHTGEKPYKCTLCGENFSHRWNL,1.44
14,RTHTGEKPYKCTLCGENFSHRYNL,1.63
15,RTHTGEKPYKCTLCGENFSHRSAL,2.28
16,RTHTGEKPYKCTLCGENFSHRSCL,3.48
17,RTHTGEKPYKCTLCGENFSHRSDL,1.88
18,RTHTGEKPYKCTLCGENFSHRSEL,2.31
19,RTHTGEKPYKCTLCGENFSHRSFL,2.23
20,RTHTGEKPYKCTLCGENFSHRSGL,2.06
21,RTHTGEKPYKCTLCGENFSHRSHL,1.96
22,RTHTGEKPYKCTLCGENFSHRSIL,2.32
23,RTHTGEKPYKCTLCGENFSHRSKL,2.17
24,RTHTGEKPYKCTLCGENFSHRSLL,1.69
25,RTHTGEKPYKCTLCGENFSHRSML,2.03
26,RTHTGEKPYKCTLCGENFSHRSPL,2.6
27,RTHTGEKPYKCTLCGENFSHRSQL,1.91

row,Variant,protein stability index
1,RTHTGEKPYKCTLCGENFSHRSRL,2.17
2,RTHTGEKPYKCTLCGENFSHRSSL,2.05
3,RTHTGEKPYKCTLCGENFSHRSTL,1.94
4,RTHTGEKPYKCTLCGENFSHRSVL,1.94
5,RTHTGEKPYKCTLCGENFSHRSWL,2.55
6,RTHTGEKPYKCTLCGENFSHRSYL,1.96
7,RTHTGEKPYKCTLCGENFSHRSNA,2.3
8,RTHTGEKPYKCTLCGENFSHRSNC,4
9,RTHTGEKPYKCTLCGENFSHRSND,2.39
10,RTHTGEKPYKCTLCGENFSHRSNE,2.43
11,RTHTGEKPYKCTLCGENFSHRSNF,1.59
12,RTHTGEKPYKCTLCGENFSHRSNG,2.82
13,RTHTGEKPYKCTLCGENFSHRSNH,2.42
14,RTHTGEKPYKCTLCGENFSHRSNI,2.15
15,RTHTGEKPYKCTLCGENFSHRSNK,2.63
16,RTHTGEKPYKCTLCGENFSHRSNM,1.91
17,RTHTGEKPYKCTLCGENFSHRSNN,2.37
18,RTHTGEKPYKCTLCGENFSHRSNP,2.33
19,RTHTGEKPYKCTLCGENFSHRSNQ,2.33
20,RTHTGEKPYKCTLCGENFSHRSNR,1.95
21,RTHTGEKPYKCTLCGENFSHRSNS,2.52
22,RTHTGEKPYKCTLCGENFSHRSNT,2.4
23,RTHTGEKPYKCTLCGENFSHRSNV,2.49
24,RTHTGEKPYKCTLCGENFSHRSNW,1.82
25,RTHTGEKPYKCTLCGENFSHRSNY,1.78

# Variants of: B2
# Assay: as above
# Settings: c terminus: a fixed tail appended
row,Variant,protein stability index
1,AQNHKITQLKIENNPFAKGFRGSD,3.46
2,CQNHKITQLKIENNPFAKGFRGSD,3.19
3,DQNHKITQLKIENNPFAKGFRGSD,3.46
4,EQNHKITQLKIENNPFAKGFRGSD,3.58
5,FQNHKITQLKIENNPFAKGFRGSD,2.48
6,GQNHKITQLKIENNPFAKGFRGSD,3.64
7,HQNHKITQLKIENNPFAKGFRGSD,3.79
8,IQNHKITQLKIENNPFAKGFRGSD,3.32
9,KQNHKITQLKIENNPFAKGFRGSD,3.91
10,LQNHKITQLKIENNPFAKGFRGSD,3.42
11,MQNHKITQLKIENNPFAKGFRGSD,3.79
12,NQNHKITQLKIENNPFAKGFRGSD,3.35
13,PQNHKITQLKIENNPFAKGFRGSD,3.52
14,QQNHKITQLKIENNPFAKGFRGSD,3.68
15,RQNHKITQLKIENNPFAKGFRGSD,3.61
